What all share (assay type): biochemical
Substrate in series [1]: CC[C@H](C)[C@H](NC(=O)[C@@H](NC(=O)[C@H](CCCCN)NC(=O)[C@H](CCCCNC(=O)OCc1ccccc1)NC(=O)[C@H](CCC(=O)Nc1ccc([N+](=O)[O-])cc1)NC(=O)[C@@H](N)Cc1c[nH]cn1)C(C)C)C(=O)NCC(N)=O
In words: Cleavage of AMC substrates by activated factor XIIIa, fluorescence plate reader (Michaelis-Menten kinetics). The settings on record: other: AMC substrates; λEX = 380 nm, λEm = 460 nm, room temperature; enzyme ca. 0,893 Einheiten/ml. Here is the method: (§1) Die Aliquotierung des Zymogens Faktor XIII und Aktivierung des Zymogens FXIII zu Faktor XIIIa erfolgten analog der in Beispiel 3 beschriebenen Prozedur.
(§2) Sämtliche Lösungen wurden bei Raumtemperatur aufbewahrt. Die Bestimmung der Spaltung der AMC-Substrate durch FXllla wurde mit einem Fluoreszenz-Plattenreader Safire^2 der Firma Tecan (λEX = 380 nm, λEm = 460 nm) bei Raumtemperatur durchgeführt. • 100 µl TBS-Puffer (siehe oben, der Puffer kann gegebenenfalls auch eine Aminkomponente enthalten, beispielsweise H-Gly-Ethylester oder H-Gly-Gly-Ethylester oder ein anderes Amin) • 50 µl Substratlösung • 25 µl Enzymlösung (im Messansatz ca. 0,893 Einheiten/ml)
(§3) Die Michaelis-Menten-Auftragung für die AMC-enthaltenden Substrate ist in Fig. 3 gezeigt.

Substrate in series [2]: CC[C@H](C)[C@H](NC(=O)[C@@H](NC(=O)[C@H](CCCCN)NC(=O)[C@@H](NC(=O)[C@H](CCC(=O)Nc1ccc([N+](=O)[O-])cc1)NC(=O)[C@@H](N)CCCCN)C(C)C)C(C)C)C(=O)NCC(N)=O
The series is described as above. The settings on record: other: AMC substrates; λEX = 380 nm, λEm = 460 nm, room temperature; enzyme ca. 0,893 Einheiten/ml. Here is the method: as §1, §2, §3

Substrate in series [3]: CC[C@H](C)[C@H](NC(=O)[C@@H](NC(=O)[C@H](CCCNC(=N)N)NC(=O)[C@@H](NC(=O)[C@H](CCC(=O)Nc1ccc([N+](=O)[O-])cc1)NC(=O)[C@@H](N)Cc1ccc(O)cc1)C(C)C)C(C)C)C(=O)NCC(N)=O
In words: Cleavage of pNA substrates by activated factor XIIIa, absorbance at 405 nm (Michaelis-Menten kinetics and pre-test). The settings on record: other: pNA substrates, 37 °C, enzyme ca. 1,25 Einheiten/ml, varied substrate concentration, pH 7.5. Here is the method: (§4) 250 Einheiten lyophilisiertes Fibrogammin HS (Aventis Behring) wurden in 4 ml Wasser gelöst, als 100 µl Portionen aliquotiert und bei -80 °C gelagert. 100 µl dieser Lösung enthalten 6,25 Einheiten FXIII.
(§5) 100 µl des aliqotierten Fibrogammins (entspricht 6,25 Einheiten) wurden mit 500 µl TBS-Puffer (50 mM Tris-HCl, pH 7,5 in 0,9% (w/v) NaCl), 360 µl einer 0.9 % NaCl-Lösung, 10 µl einer 1 M CaCl2-Lösung und 20 µl einer Thrombinlösung (Rinderthrombin: 14,2 U in 20 µl) versetzt. Der Ansatz wurde 20 min bei 37 °C inkubiert, danach wurden 10 µl einer Lösung mit rekombinantem Hirudin zugesetzt (r-Hirudin: HBW 023 mit 13442 IU mg^-1, Stammlösung des r-Hirudin = 1 mg/ml). Dieser Aktivierungsansatz besitzt ein Gesamtvolumen von 1 ml, der aktivierte Faktor Xllla wurde bei 37 °C aufbewahrt und für die folgenden kinetischen Messungen verwendet.
(§6) Die Messungen wurden bei 405 nm und 37 °C mit einem Microplate Reader der Firma Labsystems (iEMS Reader MF) mit folgendem Messansatz durchgeführt: • 150 µl TBS-Puffer (siehe oben, der Puffer kann gegebenenfalls auch eine Aminkomponente enthalten, beispielsweise H-Gly-Ethylester oder H-Gly-Gly-Ethylester oder ein anderes Amin, falls vorhanden ist die finale Konzentration des Amins im Messansatz 2,5 mM oder höher) • 50 µl Substratlösung • 50 µl Enzymlösung (im Messansatz ca. 1,25 Einheiten/ml)
(§7) Sämtliche Lösungen wurden vor Benutzung bei 37 °C aufbewahrt, vor Zugabe der FXllla-Lösung wurde die Mikroreadermessplatte nochmals 5 min bei 37 °C im Messgerät temperiert. Nach Zugabe der FXllla-Lösung wurde die Substratspaltung gestartet und die Änderung der Absorption bei 405 nm gemessen. Für einen Vortest wurde eine konstante Substratkonzentration verwendet. […] Wir haben vermutet, dass vor allem die Aminosäuren N- und C-terminal des Glu(pNA)-Restes wichtig für die Substraterkennung sind, deshalb wurde das N-terminale Glycin und das an dritter Position befindliche Serin innerhalb der Berichromsequenz durch andere Aminosäurereste ersetzt. Durch den Vortest wurde festgestellt, dass einige dieser Substrate deutlich schneller als die Derivate S1 und S2 gespalten werden. Für ausgewählte Substrate wurden die Substratkonzentrationen im Messansatz variiert und die bestimmten Umsatzgeschwindigkeiten als Funktion der Substratkonzentration entsprechend der Michaelis-Menten-Gleichung v=Vmax·[S]/(Km+[S]) aufgetragen und somit die kinetischen Konstanten Km und Vmax bestimmt, wobei Vmax in der Einheit Absorptionsänderung bei 405 nm/s erhalten wurde. Dies ist in Fig. 1 und Fig. 2 gezeigt.

Substrate in series [4]: CC[C@H](C)[C@H](NC(=O)[C@@H](NC(=O)[C@H](CCCCN)NC(=O)[C@@H](NC(=O)[C@H](CCC(=O)Nc1ccc([N+](=O)[O-])cc1)NC(=O)[C@@H](N)Cc1ccc(O)cc1)C(C)C)C(C)C)C(=O)NCC(N)=O
The description is as above. The settings on record: other: pNA substrates, 37 °C, enzyme ca. 1,25 Einheiten/ml, varied substrate concentration, pH 7.5. The method, then: as §4, §5, §6, §7

Substrate in series [5]: CC[C@H](C)[C@H](NC(=O)[C@@H](NC(=O)[C@H](CCCCN)NC(=O)[C@@H](NC(=O)[C@H](CCC(=O)Nc1ccc([N+](=O)[O-])cc1)NC(=O)[C@@H](N)Cc1ccc(O)cc1)C(C)C)C(C)C)C(N)=O
The description is as above. The settings on record: other: pNA substrates, 37 °C, enzyme ca. 1,25 Einheiten/ml, varied substrate concentration, pH 7.5. Here is the method: as §4, §5, §6, §7

Substrate in series [6]: CC[C@H](C)[C@H](NC(=O)[C@H](CCC(=O)Nc1ccc([N+](=O)[O-])cc1)NC(=O)[C@@H](N)Cc1ccc(O)cc1)C(=O)N[C@@H](CCCCN)C(=O)N[C@H](C(=O)N[C@H](C(=O)NCC(N)=O)[C@@H](C)CC)C(C)C
The series is described as above. The settings on record: other: pNA substrates, 37 °C, enzyme ca. 1,25 Einheiten/ml, varied substrate concentration, pH 7.5. Here is the method:
as §4, §5, §6, §7

B1: Faktor XIIIa (Homo sapiens) (protein)
chain: GVNLQEFLNVTSVHLFKERWDTNKVDHHTDKYENNKLIVRRGQSFYVQIDFSRPYDPRRDLFRVEYVIGRYPQENKGTYIPVPIVSELQSGKWGAKIVMREDRSVRLSIQSSPKCIVGKFRMYVAVWTPYGVLRTSRNPETDTYILFNPWCEDDAVYLDNEKEREEYVLNDIGVIFYGEVNDIKTRSWSYGQFEDGILDTCLYVMDRAQMDLSGRGNPIKVSRVGSAMVNAKDDEGVLVGSWDNIYAYGVPPSAWTGSVDILLEYRSSENPVRYGQCWVFAGVFNTFLRCLGIPARIVTNYFSAHDNDANLQMDIFLEEDGNVNSKLTKDSVWNYHCWNEAWMTRPDLPVGFGGWQAVDSTPQENSDGMYRCGPASVQAIKHGHVCFQFDAPFVFAEVNSDLIYITAKKDGTHVVENVDATHIGKLIVTKQIGGDGMMDITDTYKFQEGQEEERLALETALMYGAKKPLNTEGVMKSRSNVDMDFEVENAVLGKDFKLSITFRNNSHNRYTITAYLSANITFYTGVPKAEFKKETFDVTLEPLSFKKEAVLIQAGEYMGQLLEQASLHFFVTARINETRDVLAKQKSTVLTIPEIIIKVRGTQVVGSDMTVTVEFTNPLKETLRNVWVHLDGPGVTRPMKKMFREIRPNSTVQWEEVCRPWVSGHRKLIASMSSDSLRHVYGELDVQIQRRPSM
notes: Aktivierung des Zymogens FXIII zu Faktor XIIIa; purchased Aventis Behring Fibrogammin HS
Turning to B1, the Km – broadly, the substrate concentration at which the rate is half of its maximum – stood at 41 µM in series [1]; 30 µM in series [2]; 49 µM in series [3]; 40 µM in series [4]; 86 µM in series [5]; 78 µM in series [6].
